{
  "source": "patent US20230012273A1",
  "about": "(Boehringer Ingelheim, published 2023)",
  "binders": {"B1": {"name": "Antibody E22 (antibody, human IgG1, kappa, L234A L235A, V domains shown)", "VH": "QVQLQESGPGLVKPSETLSLTCTVSGGSIRDYYWSWIRQPPGKGLEWIGFIYYNGRTFYQSSLKSRVTISLDTSKNQFSLKMTSVTAADTAVYYCARVRAYSGIGLDGTDVWGQGTTVTVSS", "VL": "DIVMTQSPLSLPVTPGEPASISCRSSQSLLYSTGYTYLDWYLQRPGQSPQLLIYGGSSRASGVPDRFSGSGSGTDFTLKISRVEAEDVGVFYCGQALQTPLTFGQGTKVEIKR"}},
  "key": {"[1]": {"target": "T1, full-length human SIRPβ1 (NP_006056.2) on cells (human, UniProt O00241 30-398)", "T1 construct": "on U937 SIRPα KO cells and Expi-CHO cells; also called β1 WT", "T1 sequence (O00241 30-398)": "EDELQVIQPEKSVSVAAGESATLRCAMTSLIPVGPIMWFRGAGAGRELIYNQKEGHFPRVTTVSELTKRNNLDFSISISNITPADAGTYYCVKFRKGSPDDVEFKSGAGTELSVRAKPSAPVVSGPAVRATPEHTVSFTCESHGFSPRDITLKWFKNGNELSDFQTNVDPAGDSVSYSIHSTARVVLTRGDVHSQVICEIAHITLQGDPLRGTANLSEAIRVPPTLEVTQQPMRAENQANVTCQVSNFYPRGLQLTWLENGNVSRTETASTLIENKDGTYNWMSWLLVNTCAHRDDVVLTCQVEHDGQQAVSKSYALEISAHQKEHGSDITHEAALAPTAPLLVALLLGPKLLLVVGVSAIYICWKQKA", "assay": "flow cytometry, U937 SIRPα KO cells", "how_it_was_run": "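SIRPα-knockout U937 cells expressing SIRPβ1 or SIRPβL were blocked with donkey IgG, then incubated on ice 60 minutes with increasing antibody concentrations. Bound antibody detected with AF647 anti-human IgG F(ab′)₂; median fluorescence intensity taken as binding.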"}, "[2]": {"target": "T2, human SIRPαV1 extracellular domain + His-tag (NP_542970.1) (human, UniProt P78324 31-373)", "T2 construct": "also called hSIRPαV1; HuSIRPαV1", "T2 sequence (P78324 other isoform, or with tags, fused parts or gaps)": "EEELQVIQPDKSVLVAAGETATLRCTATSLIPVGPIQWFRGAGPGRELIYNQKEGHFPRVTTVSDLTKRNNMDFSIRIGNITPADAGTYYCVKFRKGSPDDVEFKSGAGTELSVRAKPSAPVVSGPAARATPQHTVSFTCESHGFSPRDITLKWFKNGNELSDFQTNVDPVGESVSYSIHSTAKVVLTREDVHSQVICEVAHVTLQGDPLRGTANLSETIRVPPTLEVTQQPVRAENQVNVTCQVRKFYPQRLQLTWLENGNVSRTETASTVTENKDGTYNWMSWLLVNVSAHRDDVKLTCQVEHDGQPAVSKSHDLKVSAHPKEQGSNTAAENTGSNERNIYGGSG", "assay": "SPR, Ab captured, ECD-His analyte", "how_it_was_run": "(§1)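 Steps: chip deactivated with 1M ethanolamine HCl for 420 sec at 10 μl/min; anti-SIRPα antibody captured; two-fold serial dilutions of His-tagged SIRP extracellular domain injected 300 sec at 30 μl/min; dissociation monitored 600 sec. All in 1×HBS-EP+ running buffer.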"}, "[3]": {"target": "T3, human SIRPαV2 extracellular domain + His-tag (CAA71403.1) (human, UniProt P78324 31-373)", "T3 construct": "also called hSIRPαV2; HuSIRPαV2", "T3 sequence (P78324 other isoform, or with tags, fused parts or gaps)": "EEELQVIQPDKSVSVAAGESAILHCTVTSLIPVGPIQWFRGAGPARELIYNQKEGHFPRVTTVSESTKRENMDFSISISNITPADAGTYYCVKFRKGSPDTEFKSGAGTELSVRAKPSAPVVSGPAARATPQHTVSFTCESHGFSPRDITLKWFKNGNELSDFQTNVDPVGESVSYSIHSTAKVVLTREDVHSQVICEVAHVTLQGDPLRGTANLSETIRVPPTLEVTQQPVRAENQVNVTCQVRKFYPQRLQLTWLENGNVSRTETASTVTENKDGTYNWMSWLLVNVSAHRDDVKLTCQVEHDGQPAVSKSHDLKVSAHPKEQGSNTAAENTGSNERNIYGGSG", "assay": "SPR, Ab captured, ECD-His analyte", "how_it_was_run": "as §1"}, "[4]": {"target": "T4, human SIRPβ1 extracellular domain + His-tag (NP_006056.2) (human, UniProt O00241 30-371)", "T4 construct": "also called hSIRPβ1; HuSIRPβ1", "T4 sequence (O00241 other isoform, or with tags, fused parts or gaps)": "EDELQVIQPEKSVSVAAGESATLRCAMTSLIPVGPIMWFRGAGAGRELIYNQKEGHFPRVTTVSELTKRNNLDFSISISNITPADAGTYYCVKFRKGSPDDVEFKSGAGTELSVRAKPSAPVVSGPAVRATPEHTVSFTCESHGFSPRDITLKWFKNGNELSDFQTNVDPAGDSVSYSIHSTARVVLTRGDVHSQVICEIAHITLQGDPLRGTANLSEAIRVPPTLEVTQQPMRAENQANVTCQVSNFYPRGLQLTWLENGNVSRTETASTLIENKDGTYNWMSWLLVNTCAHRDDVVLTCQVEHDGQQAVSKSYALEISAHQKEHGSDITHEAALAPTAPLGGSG", "assay": "SPR, Ab captured, ECD-His analyte", "how_it_was_run": "as §1"}, "[5]": {"target": "T5, human SIRPβL/SIRPβ1v3 extracellular domain + His-tag (NP_001129316.1) (human, UniProt Q5TFQ8 30-371)", "T5 construct": "also called hSIRPβ1v3; HuSIRPβ1v3", "T5 sequence (Q5TFQ8 other isoform, or with tags, fused parts or gaps)": "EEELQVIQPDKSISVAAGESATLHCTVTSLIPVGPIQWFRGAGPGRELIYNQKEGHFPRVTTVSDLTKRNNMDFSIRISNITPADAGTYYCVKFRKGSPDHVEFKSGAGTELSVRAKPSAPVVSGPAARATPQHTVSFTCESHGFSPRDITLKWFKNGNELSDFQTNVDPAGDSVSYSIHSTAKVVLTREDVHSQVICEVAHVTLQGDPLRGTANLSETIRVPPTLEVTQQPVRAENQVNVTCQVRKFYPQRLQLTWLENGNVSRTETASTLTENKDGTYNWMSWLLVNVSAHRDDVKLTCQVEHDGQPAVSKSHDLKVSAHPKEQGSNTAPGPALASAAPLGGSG", "assay": "SPR, Ab captured, ECD-His analyte", "how_it_was_run": "as §1"}, "[6]": {"target": "T6, human SIRPγ extracellular domain + His-tag (NP_061026.2) (human, UniProt Q9P1W8 29-360)", "T6 construct": "also called hSIRPγ; HuSIRPγ", "T6 sequence (Q9P1W8 29-360)": "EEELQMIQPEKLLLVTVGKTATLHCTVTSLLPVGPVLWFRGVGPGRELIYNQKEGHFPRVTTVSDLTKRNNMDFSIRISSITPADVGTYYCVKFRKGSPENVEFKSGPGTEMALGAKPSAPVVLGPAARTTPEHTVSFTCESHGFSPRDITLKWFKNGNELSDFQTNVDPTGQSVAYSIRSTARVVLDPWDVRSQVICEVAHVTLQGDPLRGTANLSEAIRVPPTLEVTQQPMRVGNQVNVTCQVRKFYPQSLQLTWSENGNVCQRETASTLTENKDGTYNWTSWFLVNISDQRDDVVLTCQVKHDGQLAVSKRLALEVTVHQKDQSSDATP", "assay": "SPR, Ab captured, ECD-His analyte", "how_it_was_run": "as §1"}, "[7]": {"target": "T7, full-length human SIRPγ (NP_061026.2) on cells (human, UniProt Q9P1W8 29-387)", "T7 construct": "on CHO and Expi-CHO cells; endogenous on primary human CD3+ T cells; also called γ WT", "T7 sequence (Q9P1W8 29-387)": "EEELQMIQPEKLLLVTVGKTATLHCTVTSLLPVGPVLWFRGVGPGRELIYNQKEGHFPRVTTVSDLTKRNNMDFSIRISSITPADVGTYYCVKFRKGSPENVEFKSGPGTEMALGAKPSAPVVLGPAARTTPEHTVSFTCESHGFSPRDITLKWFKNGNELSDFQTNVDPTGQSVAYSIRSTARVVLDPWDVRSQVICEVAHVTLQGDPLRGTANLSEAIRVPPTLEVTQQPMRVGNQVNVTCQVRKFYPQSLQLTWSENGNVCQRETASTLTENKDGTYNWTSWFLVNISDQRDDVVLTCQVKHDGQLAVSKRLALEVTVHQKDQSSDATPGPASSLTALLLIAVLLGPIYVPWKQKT", "assay": "flow cytometry, primary human CD3+ T cells", "how_it_was_run": "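PBMCs blocked with donkey IgG were incubated on ice for 60 min with increasing antibody concentrations, then detected with AF647 donkey F(ab′)₂ anti-human IgG. After fixation, median fluorescence intensity of the gated CD3+ population served as the binding measure.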"}},
  "data": [
    {"binder": "B1", "values": [
      {"measurement": "binding result", "setting": "[1]", "result": "no binding"},
      {"measurement": "Kd", "setting": "[2]", "result": 1.57, "unit": "nM"},
      {"measurement": "Kd", "setting": "[3]", "result": 1.47, "unit": "nM"},
      {"measurement": "binding result", "setting": "[4]", "result": "no binding (tested: 1000 nM)"},
      {"measurement": "Kd", "setting": "[5]", "result": 3.19, "unit": "nM"},
      {"measurement": "binding result", "setting": "[6]", "result": "no binding (tested: 1000 nM)"},
      {"measurement": "binding result", "setting": "[7]", "result": "no binding"}
    ]}
  ]
}
